Source: patent US20110104705A1, “Musclin receptor and use thereof” (Takeda Pharmaceutical Company Limited, priority 2006, published 2011)

T1: hNpr3 (Homo sapiens, UniProt P17342)
T1 construct: host or cells: FreeStyle293 cells (transient transfection)
T1 sequence (P17342 27-540 isoform P17342-2 limits assumed): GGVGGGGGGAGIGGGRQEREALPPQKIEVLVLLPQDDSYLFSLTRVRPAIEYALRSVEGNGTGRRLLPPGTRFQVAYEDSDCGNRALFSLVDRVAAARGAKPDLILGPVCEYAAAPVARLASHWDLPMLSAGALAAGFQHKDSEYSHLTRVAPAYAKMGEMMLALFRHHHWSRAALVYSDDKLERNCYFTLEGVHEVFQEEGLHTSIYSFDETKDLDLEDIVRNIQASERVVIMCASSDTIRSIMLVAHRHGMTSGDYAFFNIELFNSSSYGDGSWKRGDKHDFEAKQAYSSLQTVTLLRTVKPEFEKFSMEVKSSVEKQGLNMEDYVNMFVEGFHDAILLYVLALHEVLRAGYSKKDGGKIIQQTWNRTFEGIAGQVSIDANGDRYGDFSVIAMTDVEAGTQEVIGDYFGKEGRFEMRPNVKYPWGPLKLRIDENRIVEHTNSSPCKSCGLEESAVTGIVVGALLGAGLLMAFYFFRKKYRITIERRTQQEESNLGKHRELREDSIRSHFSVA


Biological target: T1, hNpr3
Test: Binding of biotin-labeled mMusclin to hNpr3-expressing FreeStyle293 cells (PE-labeled Streptavidin staining), with competition by unlabeled ligands
Details: for change in the binding of labeled mMusclin in the presence of a known NPR3 ligand: competitor at 10 μM; for change in the binding of labeled mMusclin in the presence of a known NPR3 ligand / change in the binding of labeled mMusclin in the presence of the unlabeled protein: BK- or BC-labeled mMusclin 0.5 μg/ml, hNpr3-expressing FreeStyle293 cells; for change in the binding of labeled mMusclin in the presence of the unlabeled protein: competitor at 100 μg/ml; for binding of labeled mMusclin to cells transfected with hNpr3 expression vector: 0.5 μg/ml labeled mMusclin, 4° C. 30 minutes, 0.3 μg (Low) or 1.0 μg (high) hNpr3 vector per 1.0×10^6 FreeStyle293 cells
Method: A hNpr3 expression vector (hNpr3/pCMV6-XL4, NM_000908 Clone #PL1154_A07) was purchased from OriGene. 0.3 μg (Low) or 1.0 μg (high) of the hNpr3 expression vector was transfected transiently per 1.0×10^6 FreeStyle293 cells by a conventional method; 48 hours later, the cells were collected and suspended in PBS-1.0% BSA at 5×10^6 cells/ml. A 1-ml portion of each cell lyzate was incubated with a final concentration of 0.5 μg/ml of BK-mMusclin or BC-mMusclin at 4° C. for 30 minutes; after 1 time of washing, the lyzate was stained with PE-labeled Streptavidin, and the cells bound to each Musclin were analyzed. Also, incubation was performed in the presence of 100 μg/ml full-length mMusclin, mCA, or His-Tyr-Cys-mMusclin, or 10 μM ANP (Atrial Natriuretic Peptide, Rat, Mouse), CANP (Atrial Natriuretic Peptide 4-23—NH2 Des-[Gln18 Ser19 Gly20 Leu21 Gly22], Rat), or LANP (Atrial Natriuretic Peptide 104-126 Des-[Cys105 Cys121], Rat) (Phoenix Pharmaceuticals, Inc.), whereby changes in the binding of labeled mMusclin were examined.

Molecule	change in the binding of labeled mMusclin in the presence of the unlabeled protein	change in the binding of labeled mMusclin in the presence of a known NPR3 ligand	other results
Atrial Natriuretic Peptide 4-23—NH2 Des-[Gln18 Ser19 Gly20 Leu21 Gly22], Rat [CANP, reference compound]	–	the binding nearly disappeared	–
Atrial Natriuretic Peptide 104-126 Des-[Cys105 Cys121], Rat (SFGGRIDRIGAQSGLGNSFRY) [LANP, known ligand of the NPR3 molecule (Phoenix Pharmaceuticals, Inc.), reference compound]	–	the binding nearly disappeared	–
Atrial Natriuretic Peptide, Rat, Mouse (SLRRSSCFGGRIDRIGAQSGLGCNSFRY) [ANP, known ligand of the NPR3 molecule (Phoenix Pharmaceuticals, Inc.), reference compound]	–	the binding nearly disappeared	–
musclin: skeletal muscle specific secretory protein (protein, UniProt P61366 28-133, looked up) Osteocrin: VDVTTTEAFDSGVIDVQSTPTVREEKSATDLTAKLLLLDELVSLENDVIETKKKRSFSGFGSPLDRLSAGSVDHKGKQRKVVDHPKRRFGIPMDRIGRNRLSNSRG	–	–	bindability of musclin to natriuretic peptide receptors (NPR1, NPR2, NPR3) (summary statement): binds specifically to the receptor NPR3
BC-labeled mMusclin: His-Tyr-Cys-mMusclin labeled with about 1 molecule of biotin at the introduced Cys residue (Maleimide PEO2 Biotin) (protein) MGSSHHHHHHSSGLVPYGCHMLASQEFGTASLQSPPTAREEKSATELSAKLLRLDDLVSLENDVFETKKKRSFSGFGSPLDRLSAGSVEHRGKQRKAVDHSKKRFGIPMDRIGRNRLSSSRG	–	–	binding of labeled mMusclin to cells transfected with hNpr3 expression vector: bound dependently on the amount of the hNpr3 gene introduced into the cells
BK-labeled mMusclin: labeled mMusclin incorporating about 5 molecules of biotin/1 molecule of mMusclin (Sulfo-NHS-LC-Biotin) (protein) LASQEFGTASLQSPPTAREEKSATELSAKLLRLDDLVSLENDVFETKKKRSFSGFGSPLDRLSAGSVEHRGKQRKAVDHSKKRFGIPMDRIGRNRLSSSRG	–	–	binding of labeled mMusclin to cells transfected with hNpr3 expression vector: bound dependently on the amount of the hNpr3 gene introduced into the cells

The next lines start with results.

change in the binding of labeled mMusclin in the presence of the unlabeled protein	Molecule	change in the binding of labeled mMusclin in the presence of a known NPR3 ligand	other results
the binding nearly disappeared	mCA: C-Terminal mMusclin (mCA) protein, cleaved from thioredoxin fusion (SFSGFGSPLDRLSAGSVEHRGKQRKAVDHSKKRFGIPMDRIGRNRLSSSRG)	–	–
the binding nearly disappeared	His-Tyr-Cys-mMusclin: His-tag Tyr Cys mouse musclin protein, ORF of SEQ ID NO:8 (protein, His-tag, Tyr, Cys) MGSSHHHHHHSSGLVPYGCHMLASQEFGTASLQSPPTAREEKSATELSAKLLRLDDLVSLENDVFETKKKRSFSGFGSPLDRLSAGSVEHRGKQRKAVDHSKKRFGIPMDRIGRNRLSSSRG	–	–
the binding nearly disappeared	full-length mMusclin: purified full-length mouse musclin protein, cleaved from thioredoxin fusion, expressed in Escherichia coli (protein) LASQEFGTASLQSPPTAREEKSATELSAKLLRLDDLVSLENDVFETKKKRSFSGFGSPLDRLSAGSVEHRGKQRKAVDHSKKRFGIPMDRIGRNRLSSSRG	–	–
